Assays:
[1] = target: T1, interaction of GST-Bcl-xL and Bak (Homo sapiens, UniProt Q07817); test: In vitro binding assay: inhibition of GST-Bcl-xL binding to 35S-methionine-labeled Bak; settings: peptide mixed with GST-Bcl-xL 30 minutes prior to addition to the binding assay
T1 construct: made in house; host or cells: GST-Bcl-xL: E. coli; Bak: rabbit reticulocyte lysate (Promega)
Procedure: An in vitro binding assay as described herein in Example A.3. was used to measure the inhibition of GST-Bcl-xL binding to in vitro translated ^35Met-labeled Bak by a 20-amino acid peptide derived from the Bak GD domain (70-89; […] [SEQ ID NO: 36]). The peptide was mixed with the GST-Bcl-xL protein 30 minutes prior to addition to the binding assay. The concentration of peptide in the binding assay is indicated. Control assay contains no peptide.
The beads were removed by centrifugation and the supernatants were incubated with GST or GST-Bcl-xL (final concentration […]) at 4° C. for 1 hour. The GST fusion proteins and any interacting proteins were recovered by incubation for 1 hour with an additional […] of GSH-agarose beads. The beads were washed twice with NP-40 lysis buffer followed by two washes with NP-40 lysis buffer without NP-40. Proteins were eluted from the beads by incubation in SDS-PAGE sample buffer at 100° C. for 5 min and loaded onto 4-20% SDS-polyacrylamide gels. Following electrophoresis, gels were fixed and incubated in a fluorography enhancing solution (Amplify; Amersham). […]
GST-Bcl-xL, or GST-Bcl-2 is incubated with a labeled GD domain-containing protein in the presence of a test compound. Resulting protein complexes are captured on GSH-agarose beads and the amount of labeled interacting protein is measured. […]

[2] = target: T2, Bcl-xL/Bak GD domain interaction (Homo sapiens, UniProt Q07817); test: High through-put screening assay 2: GST-Bcl-xL binding to biotinylated Bak GD peptide on neutravidin wells, ELISA; settings: competing peptide added, ELISA signal
T2 construct: made in house; host or cells: E. coli
T2 sequence (Q07817 whole entry, the tested form may be a part): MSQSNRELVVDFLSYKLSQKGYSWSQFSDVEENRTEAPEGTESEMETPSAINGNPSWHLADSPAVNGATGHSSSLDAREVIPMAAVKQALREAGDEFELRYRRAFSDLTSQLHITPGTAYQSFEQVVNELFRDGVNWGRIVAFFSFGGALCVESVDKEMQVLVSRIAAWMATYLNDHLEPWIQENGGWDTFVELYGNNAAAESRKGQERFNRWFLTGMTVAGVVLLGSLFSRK
Procedure: An assay was developed to screen for compounds that block the interaction between the Bcl-2 homologs, Bcl-xL and Bak. A synthetic peptide corresponding to the Bak GD binding domain ([…] [SEQ ID NO: 35]) was biotinylated and bound to wells coated with neutravidin. […] Peptides encompassing the GD domain from various Bcl-2 family members were tested for their ability to block GD domain-mediated interactions in this assay. Peptides tested: Bcl-w [SEQ ID NO: 39] […] ([…]), Bak [SEQ ID NO: 36]([…]), Bak-15 [SEQ ID NO: 37] ([…]), Bak-15L78A [SEQ ID NO: 38] ([…]), control (no peptide).
In a modification of the high through-put screening assay 1 described herein, wells are coated with an avidin derivative, to which a biotinylated peptide/protein is bound. A GST-fusion protein that can interact with the biotinylated peptide/protein is added in the presence or absence of test compounds. The plates are incubated and then unbound GST-fusion protein is removed by washing. The amount of GST-fusion protein specifically bound to the tethered peptide/protein is determined by ELISA using an anti-GST antibody conjugated to horse radish peroxidase. Compounds which block the interaction between the biotinylated peptide/protein and the GST-fusion protein cause a decrease in the ELISA signal.
In a specific example, an assay was developed to screen for compounds that block the interaction between the Bcl-2 homologs, Bcl-xL and Bak. A biotinylated Bak GD domain peptide (amino acid residues 71-89; N-biotinylated […] [SEQ ID NO: 35]) was bound to wells coated with neutravidin. […] Using this assay, peptides from Bcl-2 family members were identified which block the Bcl-xL/Bak GD domain interaction (FIG. 10).

T1 sequence (Q07817 whole entry): as the sequence (Q07817 whole entry, the tested form may be a part) above

inhibition of the interaction of GST-Bcl-xL and 35S-methionine-labeled Bak [1]: inhibition of the interaction
Sequence: TMGQVGRQLAIIGDDINRRY [Bak peptide, Bak GD domain peptide, amino acid residues 70-89]
inhibition of Bcl-xL/Bak GD domain binding [2]: concentration-dependent inhibition of binding
